Measured values published in publication PMC6212794, “Crystal structure of the modification-dependent SRA-HNH endonuclease TagI”.

Key:
[1] = biological target: TagI, SRA-HNH modification-dependent restriction endonuclease from Thermocrispum agreste (Thermocrispum agreste); test: SEC; analytical gel filtration of TagI alone; apparent molecular mass compared with the theoretical mass of the dimer
[2] = biological target: TagI, SRA-HNH modification-dependent restriction endonuclease from Thermocrispum agreste (Thermocrispum agreste); test: SEC-MALS; multi-angle light scattering of TagI alone
[3] = biological target: T1, TagI (Thermocrispum agreste, UniProt A0A3F2YM30 1-311); test: analytical gel filtration (SEC co-migration); 1, 2 or 4 duplexes per TagI dimer; migrated independently; analytical gel filtration; buffer, salt, pH and temperature not given in the material; details: protein: recombinant; chain copies: 2; blunt
T1 sequence: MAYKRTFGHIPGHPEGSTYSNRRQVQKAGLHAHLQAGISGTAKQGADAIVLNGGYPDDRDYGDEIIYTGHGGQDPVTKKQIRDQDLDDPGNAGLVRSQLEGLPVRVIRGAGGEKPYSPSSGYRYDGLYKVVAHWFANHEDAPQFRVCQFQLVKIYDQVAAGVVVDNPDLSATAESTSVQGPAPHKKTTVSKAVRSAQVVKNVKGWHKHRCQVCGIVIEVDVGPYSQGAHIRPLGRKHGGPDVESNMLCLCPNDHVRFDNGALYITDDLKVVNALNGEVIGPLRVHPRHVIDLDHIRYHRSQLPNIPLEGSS

[4] = biological target: T1, TagI; test: analytical gel filtration (SEC co-migration); 1, 2 or 4 duplexes per TagI dimer; sharp complex peak, 93 kDa, about 1 duplex per dimer; analytical gel filtration; buffer, salt, pH and temperature not given in the material; details: protein: recombinant; chain copies: 2; blunt

TagI, SRA-HNH modification-dependent restriction endonuclease from Thermocrispum agreste (enzyme)
stoichiometry N [1]: 2
stoichiometry N [2]: 2

B1: 17mer unmodified duplex (dsDNA)
DNA 1: CCTAGAGCAGCAATCCC
DNA 2: GGGATTGCTGCTCTAGG
binding result [3]: no binding

B2: 17mer fully methylated duplex (dsDNA)
DNA 1: CCTAGAGCAGCAATCCC
DNA 2: GGGATTGCTGCTCTAGG
modifications: 5mC at position 8 of strand 1 and position 8 of strand 2
binding result [4]: binds
